Measured values as given in patent US20090075921A1, “Bone/joint disease sensitivity gene and use thereof” (Riken, priority 2004, published 2009).

Assays:
TGF-β1 = TGF-β1 (Homo sapiens, UniProt P01137); assay: Binding assay of purified recombinant mouse asporin and TGF-β by microplate assay method; conditions: biotinylated mouse asporin, TGF-β1-coated plate, OD405
Description: A binding assay was performed using the method described in Example 24 with a partial modification as described below. To a Maxisorp 96-well microplate of Nunc, a 1 μg/ml TGF-β1 solution prepared with 0.05M sodium carbonate buffer (pH 9.6) was dispensed at 100 μl/well, and the microplate was coated with TGF-β1 at 4° C. overnight. The TGF-β-coated wells were blocked in 200 μl/well of Block Ace at 37° C. for 3 hours. Next, mouse asporin and biotinylated mouse asporin, diluted with Block Ace, were added to obtain a total volume of 100 μl per well, and the microplate was incubated at 4° C. overnight. The wells were washed with […] of TBST three times, after which streptavidin-alkaline phosphatase (Novagen) diluted 1000 fold with TBST was added at […], and the microplate was incubated at room temperature for 1 hour. The wells were washed with 400 μl/well of TBST five times, and then colored using an alkaline phosphatase substrate kit (BIO-RAD), and the absorbance at 405 nm was measured using Ultramark Microplate Imaging System (BIO-RAD).

[1] = tested on: normal human articular chondrocytes of knee joint (NHAC); assay: Purified recombinant mouse asporin on TGF-β-stimulated gene expression in NHAC; type: cell-based
Description: NHAC purchased from Cambrex Company was cultured in the growth medium attached to the kit (chondrocyte growth medium, CGM) in a 10-cm petri dish, after which the cells were scraped with 0.05% Trypsin/EDTA, and inoculated to a 12-well plate at 10^5 cells/well; on the following day, the medium was exchanged with DMEM/F12+0.2% FBS; 5 hours later, asporin was added. After the cells were further cultured for 12 hours, TGF-β1 (40 ng/ml) was added; from the cells cultured for 48 hours, total RNA preparation, cDNA synthesis, and real-time PCR were performed according to the methods described in Example 12.
Using a cDNA prepared by the method described in Example 35, the expression of the asporin and TGF-β1 genes was examined by real-time PCR. […] From this, it was shown that asporin negatively regulated the expression of both the asporin and TGF-β1 genes in the presence of TGF-β1.

NHAC [2] = assay: MTT assay of TGF-β1-stimulated cell growth in NHAC; type: cell-based, human; conditions: TGF-β1 40 ng/ml with asporin 5 or 20 μg/ml, 5 days
Description: NHAC was inculated to a 12-well plate at 1×10^5 cells/well, and cultured in a DMEM/F12 containing 10% FBS supplemented with TGF-β1 (40 ng/ml) and asporin (5 or 20 μg/ml) for 5 days, after which the degree of cell growth was examined by the MTT assay method described below. Specifically, 3-(4,5-dimethyl-2-thiazolyl)-2,5-diphenyl-2H-tetrazolium bromide (MTT, Dojindo Laboratory) was dissolved in DMEM/F12 to obtain a concentration of 1 mg/ml, the solution was added to the cells after the medium was removed by suction, and the cells were cultured at 37° C. for 1 hour. Thereafter the medium containing MTT was discarded, and the cells were subjected to extraction treatment using a Lysis reagent (86% isopropanol, 40 mM hydrochloric acid, 1% SDS). This cell lysate was transferred to a 96-well plate, and the absorbance at 550 nm was measured using a microplate reader.

ATDC5 cells [3] = assay: MTT assay of ATDC5 cell growth; type: cell-based, mouse
Description: ATDC5 was inoculated to a 12-well plate at 0.4×10^5 cells/well, and cultured using the medium 1-2 described in Example 19 for 24 hours, after which asporin and bFGF were added, and MTT assay was performed over time as described below. Specifically, the medium was removed by suction, the 1 mg/ml MTT reagent (DOJINDO) dissolved in DMEM/F12 was added at 1 ml/well, and the plate was incubated in a CO2 incubator for 1 hour. The supernatant was removed by suction, a Lysis reagent (86% isopropanol, 40 mM HCl, 1% SDS) was added to the plate at 0.2 ml/well, and extraction was performed at room temperature for 5 minutes. This extract was transferred to a 96-well plate, and OD550 was measured using a plate reader.

NHAC [4] = assay: Articular chondrocyte differentiation maintenance in redifferentiated NHAC; type: cell-based, human; conditions: 7 days, TGF-β1 40 ng/ml, asporin 20 μg/ml where added
Description: NHAC was redifferentiated by alginate beads culture for 2 weeks using a chondrocyte differentiation medium (CDM) manufactured by Cambrex Company according to the protocol attached. These redifferentiated cells were inoculated to a Lab-Tek II chamber slide (Nunc), a DMEM/F12 containing 5% FBS, ITS (Sigma), and TGF-β1 (40 ng/ml) was added, and the cells were allowed to maintain the degree of differentiation thereof; the effects of addition of asporin (20 μg/ml) on the cell morphology and extracellular proteoglycan accumulation were examined.

[5] = tested on: Smad3-specific gene transcription in NHAC; assay: SBE4-Luc reporter assay of TGF-β1-stimulated Smad3-specific gene transcription in NHAC; type: cell-based, human; conditions: asporin 40 μg/ml, TGF-β1 10 ng/ml, 24 hours
Description: NHAC was inoculated to a 24-well plate at 2.5×10^4 cells/well, cultured in a DMEM/F12 containing 10% FBS and penicillin/streptomycin for 24 hours, and transfected with the SBE4-Luc (Smad binding element ×4-luciferase) plasmid and the pRL-TK vector, which was used as endogenous control. 48 hours later, asporin (40 μg/ml) was added; still 12 hours later, TGF-β1 (10 ng/ml) was added; and the cells were incubated for 24 hours. The luciferase activity in the cells was measured using a PG-DUAL-SP reporter assay system (Toyo Ink).

ATDC5 cells [6] = assay: bFGF-stimulated BrdU uptake in ATDC5 cells; type: cell-based, mouse; conditions: serum-free DMEM/F12, 20 hours
Description: When ATDC5 cells inoculated in the same manner as Example 40 became subconfluent, the cells were twice washed with serum-free DMEM/F12, serum-free DMEM/F12 was added at 1 ml/well, and the cells were cultured for 24 to 48 hours. Asporin and bFGF were added thereto, and the cells were further cultured for 20 hours, after which BrdU uptake assay was performed using Cell Proliferation ELISA, BrdU (Roche) by the protocol modified for 12-well plate assay as described below. Specifically, BrdU was added to the cells to obtain a final concentration of 1 μM, and the cells were cultured at 37° C. for 4 hours, after which the culture broth was removed by suction, and a fixative solution (FixDenat) was added at 1 ml/well, after which the plate was allowed to stand at room temperature for 30 minutes. The fixative solution was removed by suction, BrdU antibody-HRP (×1000) was added at 0.5 ml/well, and the plate was allowed to stand at room temperature for 1 hour, washed with TBST four times, a substrate solution was added at 0.3 ml/well to proceed the reaction at room temperature for 30 minutes until sufficient color development occurred. 1 M phosphoric acid was added at 0.3 ml/well to step the reaction, transferred to a 96-well plate, and OD415 was measured using a plate reader.

Sequence of TGF-β1 (P01137 279-390 limits assumed, species assumed): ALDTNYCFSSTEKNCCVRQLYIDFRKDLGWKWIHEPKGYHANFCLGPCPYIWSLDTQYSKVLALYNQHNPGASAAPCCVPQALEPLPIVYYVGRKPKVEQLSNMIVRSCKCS

B1: purified mouse asporin: recombinant mouse asporin expressed in Escherichia coli, refolded from insoluble fraction and purified by gel filtration (protein)
chain: DMEDTDDDDNDDDDNSLFPTKEPVNPFFPFDLFPTCPFGCQCYSRVVHCSDLGLTSVPNNIPFDTRMVDLQNNKIKEIKENDFKGLTSLYALILNNNKLTKIHPKTFLTTKKLRRLYLSHNQLSEIPLNLPKSLAELRIHDNKVKKIQKDTFKGMNALHVLEMSANPLENNGIEPGAFEGVTVFHIRIAEAKLTSIPKGLPPTLLELHLDFNKISTVELEDLKRYRELQRLGLGNNRITDIENGTFANIPRVREIHLEHNKLKKIPSGLQELKYLQIIFLHYNSIAKVGVNDFCPTVPKMKKSLYSAISLFNNPMKYWEIQPATFRCVLGRMSVQLGNVGK
modifications: left off: small tags and cut ends
Q: For B1, which “binding to TGF-β1 (microplate)” value (TGF-β1) is on record?
A: The value was “bound to TGF-β1 concentration-dependently and specifically”.

Q: What about the “TGF-β1-stimulated increases in expression of the asporin and TGF-β1 genes” value ([1]; NHAC, cDNA of Example 35) of the same molecule?
A: The value was “both suppressed”.

Q: What about the “TGF-β1-stimulated expression of the type II collagen and aggrecan genes” value ([1]; TGF-β1 40 ng/ml, 48 hours) of the same molecule?
A: Its value is “suppressed the TGF-β1-stimulated expression of the type II collagen and aggrecan genes in NHAC concentration-dependently”.

Q: What about the “cell growth of NHAC (MTT, absorbance at 550 nm)” value (NHAC [2]) of the same molecule?
A: The value was “suppressed concentration-dependently”.

Q: What about the “growth of ATDC5 cells (MTT, OD550)” value (ATDC5 cells [3]; added alone, medium 1-2) of the same molecule?
A: The value was “suppressed the growth of ATDC5 cells concentration-dependently”.

Q: And the “growth suppressive effect of bFGF on ATDC5 cells” value (ATDC5 cells [3]; addition of asporin 10 μg/ml)?
A: Its value is “enhanced”.

Q: What about the “Safranine-O stainability (extracellular proteoglycan)” value (NHAC [4]) of the same molecule?
A: The value was “decreased”.

Q: And the cell morphology (NHAC [4])?
A: Its cell morphology is “fibroblast-like morphology”.

Q: And the “TGF-β1-stimulated elevation of luciferase activity (SBE4-Luc)” value [5]?
A: The value was “significantly suppressed”.

Q: And the “BrdU uptake in the absence of bFGF” value (ATDC5 cells [6])?
A: Its value is “did not change BrdU uptake”.

Q: And the “BrdU uptake in the presence of bFGF” value (ATDC5 cells [6])?
A: Its value is “further enhance the increase in BrdU uptake”.
